Measured values published in patent US20110256088A1 (MIT, published 2011).
Bridge positions count the residues as written; N and C are the ends. Ends that are not written are not given here. * marks the point of attachment. Myristoyl = CCCCCCCCCCCCCC(=O)*

T1: p32 or gC1q receptor (human, UniProt Q07021 74-282)
T1 construct: whole, on cells; Endogenous protein on cell lines; also called p32 receptor; cell surface p32
T1 sequence (looked up): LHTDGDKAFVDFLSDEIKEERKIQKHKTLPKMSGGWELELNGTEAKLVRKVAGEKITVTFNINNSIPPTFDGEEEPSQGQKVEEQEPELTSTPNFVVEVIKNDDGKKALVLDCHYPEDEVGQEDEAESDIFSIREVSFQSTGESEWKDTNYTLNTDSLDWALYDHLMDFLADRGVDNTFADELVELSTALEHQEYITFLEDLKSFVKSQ

B1: TP-ARAL tandem peptide (peptide)
peptide: Myristoyl-GWTLNSAGYLLGKINLKALAALAKKILGGGGARALPSQRSR
modifications: also: TAMRA label, place not given here
notes: also called untargeted tandem peptide; control peptide (TP-ARAL)

What was measured:
p32 or gC1q receptor [1] = target: T1, p32 or gC1q receptor; assay: TAMRA-labeled tandem peptide incubated on MDA-MB-435 cells with p32 shRNA or control shRNA
p32 or gC1q receptor [2] = target: T1, p32 or gC1q receptor; assay: free LyP-1 (5 to 20 µM) as competitor on HeLa cells, read out as GFP silencing
Method: For the initial screen, HeLa cells stably expressing destabilized GFP were cultured in 96-well plates to ˜70-80% confluence. siRNA (0-100 nM) was incubated with 20-fold molar excess of tetramethylrhodamine-labelled tandem peptides in PBS for 10-15 min at room temperature, then incubated over cells in DMEM for 4 h at 37° C., after which the medium was replaced. The complexes were then added to HeLa cell cultures and incubated for 4 h at 37° C., after which the medium was replaced with 100 μL of fresh medium with 10% serum.

Binder	binding result (p32 or gC1q receptor [1])	binding result (p32 or gC1q receptor [2])
B1	no binding	
CGNKRTRGC (disulfide 1-9 (inferred), also called unlabeled LyP-1 peptide) [free LyP-1 peptide]		binds
